Laboratory results as given in PMC3932107.

Experiments:
[1] = target: Alexa488-labeled γ-synuclein (human) (UniProt O76070); experiment: photon counting histogram
[2] = target: CPM-labeled γ-synuclein (human) (UniProt O76070); experiment: other fluorescence titration

| stoichiometry N [1] | Kd [2] [nM] | Substance |
| --- | --- | --- |
| 20 |  | Alexa488-labeled γ-synuclein (from UniProt O76070 1-127) (natural protein) |
|  | 5 | γ-synuclein, purified from E. coli, unlabelled (from UniProt O76070 1-127) (natural protein) |
